Target: human CD40 on cells (HEK293 transfected with human CD40; Ramos-Blue B-lymphocytes; human B cells; human monocyte-derived dendritic cells) (human) (UniProt P25942)
Assay: cell-based or functional assay

UniProt P25942, sequence (P25942 21-277 limits assumed): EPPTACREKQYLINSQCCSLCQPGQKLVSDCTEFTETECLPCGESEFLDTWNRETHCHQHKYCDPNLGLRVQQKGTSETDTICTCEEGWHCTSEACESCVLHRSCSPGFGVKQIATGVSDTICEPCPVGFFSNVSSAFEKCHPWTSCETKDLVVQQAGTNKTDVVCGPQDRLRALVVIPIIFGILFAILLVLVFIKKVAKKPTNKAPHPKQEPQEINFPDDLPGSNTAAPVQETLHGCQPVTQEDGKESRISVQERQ

## human IgG4P isotype control NIP-228 (antibody)
  EC50 (nM), NFkB-luciferase reporter, HuCD40 293 HEK NFkB c3 cells: 2.27 nM
  EC50 (nM), NFkB/AP-1 reporter, Ramos-Blue B-cells: 208 nM
